This note sets out measurements from article PMC7961048 (2021).

Like-named read-outs stand apart in the source and are kept apart here. Non-standard residues stand in square brackets, D forms with d. No end group written: not given here. *: point of attachment. Biotin = O=C1N[C@H]2[C@H](CS[C@H]2CCCCC(=O)*)N1; pT = C[C@@H](OP(=O)(O)O)[C@H](N)C(=O)O; ttds = NCCCOCCOCCOCCCNC(=O)CCC(=O)*

In experiment [1] the target is T1, full-length human 14-3-3γ fused to the C terminus of MBP (human, UniProt P61981 1-247).
T1 chain: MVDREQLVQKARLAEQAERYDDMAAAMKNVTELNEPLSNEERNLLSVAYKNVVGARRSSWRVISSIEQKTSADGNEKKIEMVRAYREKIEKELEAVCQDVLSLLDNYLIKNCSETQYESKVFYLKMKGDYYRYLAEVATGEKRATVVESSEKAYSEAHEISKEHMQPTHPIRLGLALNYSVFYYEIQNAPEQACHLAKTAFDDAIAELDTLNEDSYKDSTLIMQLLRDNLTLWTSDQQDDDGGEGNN
Nature of the experiment: FP; +FSC.

Experiment [2] concerns the target T2, full-length human 14-3-3ζ fused to the C terminus of MBP (human, UniProt P63104 1-245).
T2 chain: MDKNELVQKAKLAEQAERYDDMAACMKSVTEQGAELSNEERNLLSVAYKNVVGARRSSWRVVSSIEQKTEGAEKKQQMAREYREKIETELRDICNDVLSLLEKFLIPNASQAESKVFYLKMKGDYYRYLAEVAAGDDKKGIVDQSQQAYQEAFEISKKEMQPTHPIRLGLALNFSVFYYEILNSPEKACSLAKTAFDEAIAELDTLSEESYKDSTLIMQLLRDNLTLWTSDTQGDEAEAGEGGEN
Nature of the experiment: FP; +FSC.

Experiment [3] addresses T1, full-length human 14-3-3γ fused to the …. Nature of the experiment: FP; with FSC.
Experiment [4] concerns the target T3, full-length human 14-3-3η fused to the C terminus of MBP (human, UniProt Q04917 1-246).
T3 chain: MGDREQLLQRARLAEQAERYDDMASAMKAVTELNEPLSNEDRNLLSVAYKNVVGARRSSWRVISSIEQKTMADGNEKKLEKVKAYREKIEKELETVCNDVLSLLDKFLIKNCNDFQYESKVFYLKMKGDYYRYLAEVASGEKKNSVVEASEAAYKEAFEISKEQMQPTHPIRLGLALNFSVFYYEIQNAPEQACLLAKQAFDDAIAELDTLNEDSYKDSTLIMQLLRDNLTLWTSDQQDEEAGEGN
Nature of the experiment: FP.

For experiment [5], the target named is T4, full-length human 14-3-3σ fused to the C terminus of MBP (human, UniProt P31947 1-248).
T4 chain: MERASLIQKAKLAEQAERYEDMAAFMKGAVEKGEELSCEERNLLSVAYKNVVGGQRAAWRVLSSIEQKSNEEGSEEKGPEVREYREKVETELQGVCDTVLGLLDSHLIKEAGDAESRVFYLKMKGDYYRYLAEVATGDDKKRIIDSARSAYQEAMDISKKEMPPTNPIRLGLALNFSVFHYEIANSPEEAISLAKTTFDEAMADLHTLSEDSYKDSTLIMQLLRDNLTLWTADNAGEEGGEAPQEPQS
Nature of the experiment: FP.

For experiment [6], the target named is T1, full-length human 14-3-3γ fused to the …. The experiment can be described thus: FP.
In experiment [7] the target is T3, full-length human 14-3-3η fused to the …. Nature of the experiment: FP.
For experiment [8], the target named is T2, full-length human 14-3-3ζ fused to the …. Nature of the experiment: FP; with FSC.
Experiment [9] concerns the target T4, full-length human 14-3-3σ fused to the …. The experiment can be described thus: FP.

As to {Biotin-ttds}-SSRTRRE[pT]QL [HPV16 E6 phospho-PBM peptide p16E6], the Kd in experiment [1] was 91.7 µM; in [2], 161 µM; in [3], 91.7 µM; in [4] it was 80.5 µM; in experiment [5], greater than 300 µM; in [6], 37.2 µM. The same molecule came in with a Kd in experiment [7] of 80.5 µM.
As for {Biotin-ttds}-RLQRRRE[pT]QV [HPV18 E6 phospho-PBM peptide p18E6], the Kd in experiment [1] was 19.3 µM; in experiment [2], 37.3 µM; in [3] it was 19.3 µM; in [8] it was 37.3 µM; in experiment [9], 139 µM; in experiment [5], 139 µM. For the same molecule, the dissociation constant (Kd) is 11.1 µM in experiment [6] and 23.6 µM in experiment [7].

The Kd is the equilibrium constant for the complex coming apart. Higher therefore signals lower affinity.
